From US20080220450A1 (published 2008)

How the values were obtained:
Assay in all cases: binding to purified HLA
HLA-DR6(13) = HLA-DR6(13) (human)
DRB1*0301 (DR3w17) = target: DRB1*0301 (DR3w17)
[1] = target: DQA1*0501/DQB1*0201 (DQ2)
DRB1*0101 (DR1) = DRB1*0101 (DR1) (human, UniProt P01903 26-254)
DRB1*1501 (DR2w2β1) = DRB1*1501 (DR2w2β1) (human)
DRB1*0701 (DR7) = target: DRB1*0701 (DR7)
DRB1*0405 (DR4w15) = target: DRB1*0405 (DR4w15)
[2] = target: DQA1*0301/DQB1*0301 (DQ3.1)
DRB1*0802 (DR8w2) = target: DRB1*0802 (DR8w2)
DRB1*0404 (DR4w14) = target: DRB1*0404 (DR4w14)
DRB1*0401 (DR4w4) = target: DRB1*0401 (DR4w4)
[3] = target: DQA1*0301/DQB1*0302 (DQ3.2)
DRB4*0101 (DRw53) = target: DRB4*0101 (DRw53)
DRB1*0901 (DR9) = target: DRB1*0901 (DR9)
DRB3*0101 (DR52a) = target: DRB3*0101 (DR52a)
DRB5*0101 (DR2w2β2) = target: DRB5*0101 (DR2w2β2)
DRB1*1101 (DR5w11) = target: DRB1*1101 (DR5w11)
DRB1*1201 (DR5w12) = target: DRB1*1201 (DR5w12)

IC50 (HLA-DR6(13))	IC50 (DRB1*0301 (DR3w17))	IC50 [1]	IC50 (DRB1*0101 (DR1))	IC50 (DRB1*1501 (DR2w2β1))	IC50 (DRB1*0701 (DR7))	IC50 (DRB1*0405 (DR4w15))	IC50 [2]	IC50 (DRB1*0802 (DR8w2))	IC50 (DRB1*0404 (DR4w14))	IC50 (DRB1*0401 (DR4w4))	IC50 [3]	IC50 (DRB4*0101 (DRw53))	IC50 (DRB1*0901 (DR9))	IC50 (DRB3*0101 (DR52a))	IC50 (DRB5*0101 (DR2w2β2))	IC50 (DRB1*1101 (DR5w11))	IC50 (DRB1*1201 (DR5w12))	Binder
	16400 nM	6160 nM	1060 nM	865 nM	724 nM	6780 nM	6010 nM	> 16300 nM	7580 nM	4790 nM	5010 nM	> 9670 nM	1480 nM	> 9430 nM				GSISYPARYANAMAV [B. lentus 157]
		97 nM	8.8 nM	683 nM	58 nM	37 nM	2180 nM	2190 nM	166 nM	30 nM	80 nM	1070 nM	43 nM	119 nM	1020 nM	3020 nM	1240 nM	NGIEWAIANNMDVIN [BPN' Y217L .109]
9.8 nM																		NGIEWAIANNMDVIN [B. amyloliquifaciens subtilisin BPN' Y217L epitope peptide, amino acids 109-123]

Further lines, the binder ahead of its results:

Binder	IC50 (HLA-DR6(13))	IC50 (DRB1*0301 (DR3w17))	IC50 [1]	IC50 (DRB1*0101 (DR1))	IC50 (DRB1*1501 (DR2w2β1))	IC50 (DRB1*0701 (DR7))	IC50 (DRB1*0405 (DR4w15))	IC50 [2]	IC50 (DRB1*0802 (DR8w2))	IC50 (DRB1*0404 (DR4w14))	IC50 (DRB1*0401 (DR4w4))	IC50 [3]	IC50 (DRB4*0101 (DRw53))	IC50 (DRB1*0901 (DR9))	IC50 (DRB3*0101 (DR52a))	IC50 (DRB5*0101 (DR2w2β2))	IC50 (DRB1*1101 (DR5w11))	IC50 (DRB1*1201 (DR5w12))
GSISYPARYANAMAV [B. lentus subtilisin epitope peptide, amino acids 157-171]	2010 nM																	
GTVAALNNSIGVLGV [BPN' Y217L .70]		8740 nM	670 nM	6.5 nM	21 nM	154 nM	166 nM	440 nM	1710 nM	5.7 nM	33 nM	2070 nM	31 nM	46 nM	2010 nM	15700 nM	2380 nM	80 nM
SYPARYANAMAVGAT [B. lentus subtilisin epitope peptide, amino acids 160-174]	559 nM																	
SYPARYANAMAVGAT [B. lentus .160]			1300 nM	13 nM		138 nM	1350 nM	63 nM	2030 nM	5540 nM	142 nM	1050 nM	8260 nM	164 nM	6160 nM	1730 nM	5550 nM	
